The source of these data is patent US7132397B1.

This experiment concerns the target BMP receptors.

B1: unmodified mature human MP52 (ligand)
chain: PLATRQGKRPSKNLKARCSRKALHVNFKDMGWDDWIIAPLEYEAFHCEGLCEFPLRSHLEPTNHAVIQTLMNSMDPESTPPTCCVPTRLSPISILFIDSANNVVYKQYEDMVVESCGCR
As for B1, the ALPase activity in MC3T3-E1 cells (times higher than the control group) was 3.

B2: recombinant mature human BMP-2 (ligand)
chain: QAKHKQRKRLKSSCKRHPLYVDFSDVGWNDWIVAPPGYHAFYCHGECPFPLADHLNSTNHAIVQTLVNSVNSKIPKACCVPTELSAISMLYLDENEKVVLKNYQDMVVEGCGCR
Regarding B2, the ALPase activity in C3H10T 1/2 cells (times higher than the control group) was determined as 40.
